Key:
RNase A = RNase A (Bos taurus, UniProt P61823); assay: Thermal unfolding of RNase A by differential scanning calorimetry; format: physicochemical; conditions: 10 mM PBS, RNase A 0.5 mg/ml, heating rate 60° C./h
Protocol: The thermal unfolding of RNase A was measured by differential scanning calorimetry (DSC) in the range of 10−130° C. The DSC was carried out using a VP DSC microcalorimeter (MicroCal Company, USA) with a heating rate of 60° C./h. In a typical procedure, the RNase A/SV was suspended in 10 mM PBS solution with the RNase A concentration of 0.5 mg/ml. A reference suspension was also prepared using only SV the same concentration. The reference and sample suspension were injected in the corresponding cells for DSC measurements. The DSC curve of free RNase A was also obtained.

HCT116 cells = assay: Cell viability after acid and heat treatment, HCT116; format: cell-based; conditions: 24 to 72 h; samples acid and heat treated
SCC25 cells = assay: MTT cell toxicity, SCC25; format: cell-based, human
Protocol: SCC25 cells were seeded in a 96-well plate at a density of 2×10^4 cells per well and cultured in 5% CO2 at 37° C. for 24 h. Then, free RNase A, SVs, RNase A loaded SVs and corresponding denatured samples were added to the cells in DMEM medium at an RNase A dosage of 4-16 μg/ml, and the cells were incubated in 5% CO2 at 37° C. for 24 and 72 h. Subsequently, MTT reagent (10 μl/well volume from 5 mg/mI solution in PBS) was added to each well, shaken for 10 seconds and then incubated at 37° C. for 4 h. The precipitants were collected following centrifugation for the above cell toxicity experiments after the removal of the supernatant. Then DMSO (100 μl) was added to each well to dissolve the formazan crystals and the optical density (OD) was recorded at 570 nm using a microplate reader (SpectraMax M5, Bio-Strategy, Ltd). Cells incubated in the absence of SVs and RNase A were used as the control. All the experiments were performed in triplicate for each group.
Another series of control groups was prepared after heat and acid denaturation of RNase A, including both free RNase A and RNase A loaded SVs. In the denaturation process, 50 μl of HCl (0.01M, pH 2.0) solution was added in to 1 mg of free RNase A or 6-9 mg of SVs (loaded with 1 mg RNase A). The mixtures were incubated at 65° C. for 40 min, cooled and centrifuged. NaOH (0.01M) solution was added dropwise into the mixtures until the pH reached ˜7, indicated by precise pH paper and used as a denatured RNase A group in the present experiment.
The stability and activity of RNase A loaded in hydrophobic modified SV was further investigated with acid and heat treatment. In a treatment procedure, 50 μl 0.01 M HCl (pH 2) was added to ˜1 mg RNase A loaded in SV. The mixture was kept in 65° C. for 40 min, then neutralized with 0.01 M NaOH solution (pH 12) until the pH reached 7. The final RNase A concentration was then diluted to 0.5 mg/ml. Free RNase A was also treated accordingly as a control group. […]

B1: free RNase A: ribonuclease A, model therapeutical protein (protein, UniProt P61823 27-150, looked up)
Ribonuclease pancreatic: KETAAAKFERQHMDSSTSAASSSNYCNQMMKSRNLTKDRCKPVNTFVHESLADVQAVCSQKNVACKNGQTNCYQSYSTMSITDCRETGSSKYPNCAYKTTQANKHIIVACEGNPYVPVHFDASV
midpoint temperature for the RNase A thermal unfolding (Tm) (RNase A): 63.6 °C | cellular toxicity / inhibition of HCT116 cells (HCT116 cells): no inhibition | cellular toxicity / inhibition of SCC25 cells (SCC25 cells; 24 to 72 h, samples acid and heat treated): no inhibition | cytotoxicity to SCC25 cells (SCC25 cells; free protein after denaturation): no cytotoxicity | cytotoxicity to SCC25 cells (SCC25 cells; free protein, not denatured): no cytotoxicity

From US11033507B2, “Method of synthesis of silica vesicles and use thereof” (THE UNIVERSITY OF QUEENSLAND, priority 2013, dated 2021)
